Measured values from article PMC11868491.

How the values were obtained:
His6-Crz1(N339-S678) [1] = molecular target: T1, His6-Crz1(N339-S678) (Saccharomyces cerevisiae BY4743, UniProt P53968 339-678); test: EMSA
His6-Crz1(N339-S678) [2] = molecular target: T1, His6-Crz1(N339-S678); test: competition

T1 sequence (P53968 339-678): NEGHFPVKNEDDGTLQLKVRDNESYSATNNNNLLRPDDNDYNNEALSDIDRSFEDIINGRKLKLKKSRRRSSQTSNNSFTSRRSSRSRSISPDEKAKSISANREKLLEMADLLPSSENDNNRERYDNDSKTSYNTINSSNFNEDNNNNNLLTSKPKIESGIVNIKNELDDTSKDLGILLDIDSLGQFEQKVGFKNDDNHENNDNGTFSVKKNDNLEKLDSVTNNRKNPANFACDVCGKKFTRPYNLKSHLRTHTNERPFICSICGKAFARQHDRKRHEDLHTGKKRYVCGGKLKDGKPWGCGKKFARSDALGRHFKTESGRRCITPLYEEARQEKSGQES

B1: EMSA_probe-Crz1/CMK2-F/R (DIG-labeled) (dsDNA)
DNA 1: AACGCAGCGCGAAGAGAATAATTGAGGCTTATCTTAGAACCCTGCCCCC
DNA 2: GGGGGCAGGGTTCTAAGATAAGCCTCAATTATTCTCTTCGCGCTGCGTT
- binding result (His6-Crz1(N339-S678) [1]): binds

B2: EMSA_probe-Crz1/CMK2-F/R (unlabeled competitor) (dsDNA)
DNA 1: AACGCAGCGCGAAGAGAATAATTGAGGCTTATCTTAGAACCCTGCCCCC
DNA 2: GGGGGCAGGGTTCTAAGATAAGCCTCAATTATTCTCTTCGCGCTGCGTT
- binding result (His6-Crz1(N339-S678) [2]): binds
